Values of other authors as cited in article PMC6780499, “Characterization, Recombinant Production and Structure-Function Analysis of NvCI, A Picomolar Metallocarboxypeptidase Inhibitor from the Marine Snail Nerita versicolor” (Marine Drugs, 2019).

Columns and labels:
bCPA1 = target: T1, bCPA1 (Bos taurus, UniProt P00730); details: ref Arolas et al., 2005 [12]; cited from earlier work
T1 sequence (P00730 111-419): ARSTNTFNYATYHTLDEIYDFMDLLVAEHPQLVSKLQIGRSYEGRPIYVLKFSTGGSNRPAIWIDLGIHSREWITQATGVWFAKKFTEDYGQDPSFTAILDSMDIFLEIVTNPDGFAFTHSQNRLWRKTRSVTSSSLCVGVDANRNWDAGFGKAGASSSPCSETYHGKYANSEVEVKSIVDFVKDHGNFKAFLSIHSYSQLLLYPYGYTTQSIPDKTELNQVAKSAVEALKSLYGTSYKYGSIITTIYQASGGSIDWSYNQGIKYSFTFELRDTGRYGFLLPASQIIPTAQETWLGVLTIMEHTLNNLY
Description: (§1) Table 2 Ki values of various proteinaceous metallocarboxypeptidases (MCPs) inhibitors. | column: Ki (nM) / rPCI (a); Ki (nM) / rTCI (b); Ki (nM) / rLCI (c); Ki (nM) / rACI (d); Ki (nM) / rhuman latexin (e)

hCPA2 = target: T2, hCPA2 (Homo sapiens, UniProt P48052); details: ref Arolas et al., 2005 [12]; cited from earlier work
T2 sequence (P48052 115-419): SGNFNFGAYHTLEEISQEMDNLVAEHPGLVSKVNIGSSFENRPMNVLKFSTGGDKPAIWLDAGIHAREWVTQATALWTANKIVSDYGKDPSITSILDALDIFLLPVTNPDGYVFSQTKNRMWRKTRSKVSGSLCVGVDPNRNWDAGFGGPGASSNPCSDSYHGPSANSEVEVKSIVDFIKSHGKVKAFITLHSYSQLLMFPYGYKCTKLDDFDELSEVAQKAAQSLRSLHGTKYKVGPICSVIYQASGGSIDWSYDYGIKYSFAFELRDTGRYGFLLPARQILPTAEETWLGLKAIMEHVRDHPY
Description: as §1

hCPA4 = target: T3, hCPA4 (Homo sapiens, UniProt Q9UI42); details: ref Tanco et al., 2010 [22]; cited from earlier work
T3 sequence (Q9UI42 114-421): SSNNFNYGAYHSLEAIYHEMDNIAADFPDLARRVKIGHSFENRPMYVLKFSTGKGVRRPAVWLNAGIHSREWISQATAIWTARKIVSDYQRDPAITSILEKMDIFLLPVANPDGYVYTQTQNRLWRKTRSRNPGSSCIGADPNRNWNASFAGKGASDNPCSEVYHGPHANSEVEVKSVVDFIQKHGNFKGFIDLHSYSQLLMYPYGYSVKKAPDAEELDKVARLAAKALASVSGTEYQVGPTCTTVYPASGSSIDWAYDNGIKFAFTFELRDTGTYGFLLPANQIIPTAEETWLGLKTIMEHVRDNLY
Description: as §1

hCPA1 = target: T4, hCPA1 (Homo sapiens, UniProt P15085); details: ref Arolas et al., 2005 [12]; cited from earlier work
T4 sequence (P15085 111-419): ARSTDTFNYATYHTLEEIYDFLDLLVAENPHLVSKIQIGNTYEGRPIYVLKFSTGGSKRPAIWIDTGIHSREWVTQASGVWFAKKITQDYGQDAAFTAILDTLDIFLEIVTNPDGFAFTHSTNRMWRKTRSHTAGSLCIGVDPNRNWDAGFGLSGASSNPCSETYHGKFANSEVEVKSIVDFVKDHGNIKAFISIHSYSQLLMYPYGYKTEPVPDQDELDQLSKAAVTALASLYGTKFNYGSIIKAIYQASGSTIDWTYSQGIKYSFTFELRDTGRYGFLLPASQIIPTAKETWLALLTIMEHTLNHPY
Description: as §1

pCPB = target: T5, pCPB (Sus scrofa, UniProt P09955); details: ref Arolas et al., 2005 [12]; cited from earlier work
T5 sequence (P09955 111-416): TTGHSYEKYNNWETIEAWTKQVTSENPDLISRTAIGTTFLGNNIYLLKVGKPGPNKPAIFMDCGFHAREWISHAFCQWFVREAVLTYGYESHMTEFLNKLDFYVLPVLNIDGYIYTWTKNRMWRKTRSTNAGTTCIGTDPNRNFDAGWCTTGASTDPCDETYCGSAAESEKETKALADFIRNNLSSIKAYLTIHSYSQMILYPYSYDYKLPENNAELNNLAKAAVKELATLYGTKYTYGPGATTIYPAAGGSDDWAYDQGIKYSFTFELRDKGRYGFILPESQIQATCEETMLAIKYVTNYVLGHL
Description: Table 2 Ki values of various proteinaceous metallocarboxypeptidases (MCPs) inhibitors. | column: Ki (nM) / rPCI (a); Ki (nM) / rTCI (b); Ki (nM) / rLCI (c)

hCPB = target: T6, hCPB (Homo sapiens, UniProt P15086); details: ref Arolas et al., 2005 [12]; cited from earlier work
T6 sequence (P15086 111-417): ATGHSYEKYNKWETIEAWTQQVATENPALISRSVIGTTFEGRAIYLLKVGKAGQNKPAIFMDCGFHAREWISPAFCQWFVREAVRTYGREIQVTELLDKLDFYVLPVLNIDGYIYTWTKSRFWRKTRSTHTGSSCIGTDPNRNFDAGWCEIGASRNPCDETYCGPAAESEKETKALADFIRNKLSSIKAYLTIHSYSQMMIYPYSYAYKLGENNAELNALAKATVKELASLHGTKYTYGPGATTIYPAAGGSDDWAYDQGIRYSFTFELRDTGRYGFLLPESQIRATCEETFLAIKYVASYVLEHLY
Description: Table 2 Ki values of various proteinaceous metallocarboxypeptidases (MCPs) inhibitors. | column: Ki (nM) / rPCI (a); Ki (nM) / rTCI (b); Ki (nM) / rLCI (c); Ki (nM) / rhuman latexin (e)

bTAFI = target: T7, bTAFI (Bos taurus, UniProt Q2KIG3); details: ref Arolas et al., 2005 [12]; cited from earlier work
T7 sequence (Q2KIG3 115-423): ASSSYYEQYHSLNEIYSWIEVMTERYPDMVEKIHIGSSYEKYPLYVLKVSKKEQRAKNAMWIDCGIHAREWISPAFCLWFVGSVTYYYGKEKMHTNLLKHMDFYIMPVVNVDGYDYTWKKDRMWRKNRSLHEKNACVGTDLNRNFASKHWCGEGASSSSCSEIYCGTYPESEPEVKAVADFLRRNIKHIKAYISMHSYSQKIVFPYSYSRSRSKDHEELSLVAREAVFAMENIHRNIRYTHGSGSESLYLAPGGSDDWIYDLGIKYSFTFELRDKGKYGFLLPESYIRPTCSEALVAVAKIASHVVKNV
Description: Table 2 Ki values of various proteinaceous metallocarboxypeptidases (MCPs) inhibitors. | column: Ki (nM) / rPCI (a); Ki (nM) / rTCI (b)

hTAFI = target: T8, hTAFI (Homo sapiens, UniProt Q96IY4); details: ref Arolas et al., 2005 [12]; cited from earlier work
T8 sequence (Q96IY4 115-423): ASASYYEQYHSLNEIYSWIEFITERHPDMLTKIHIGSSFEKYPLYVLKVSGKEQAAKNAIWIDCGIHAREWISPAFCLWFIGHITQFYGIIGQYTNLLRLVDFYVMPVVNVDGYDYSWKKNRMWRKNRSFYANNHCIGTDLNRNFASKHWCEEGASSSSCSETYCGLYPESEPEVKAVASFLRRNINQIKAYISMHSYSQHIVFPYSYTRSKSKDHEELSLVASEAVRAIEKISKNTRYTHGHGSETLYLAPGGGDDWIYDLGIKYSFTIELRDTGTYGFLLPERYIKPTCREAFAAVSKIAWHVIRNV
Description: Table 2 Ki values of various proteinaceous metallocarboxypeptidases (MCPs) inhibitors. | column: Ki (nM) / rPCI (a); Ki (nM) / rTCI (b); Ki (nM) / rACI (d); Ki (nM) / rhuman latexin (e)

Question: What does the source list for “rPCI: recombinant proteinaceous carboxypeptidase inhibitor from potato (QQHADPICNKPCKTHDDCSGAWFCQACWNSARTCGPYVG; UniProt P01075 1-39, looked up) [reference compound]”?
Answer: Ki (bCPA1): 1.6 ± 0.2 nM; Ki (hCPA2): 8.8 ± 0.7 nM; Ki (hCPA4): 1.3 ± 0.1 nM; Ki (hCPA1): 1.6 ± 0.3 nM; Ki (pCPB): 7.2 ± 0.6 nM; Ki (hCPB): 1.8 ± 0.3 nM; Ki (bTAFI): 2.5 ± 0.4 nM; Ki (hTAFI): 5.2 ± 0.5 nM
